Measurements from the supplement of paper PMC7877785.
± gives the uncertainty stated by the source.

Assay: self-splicing fitness, log relative to wild type (ln ratio); higher = more splicing; Tetrahymena group I intron in knt gene, E. coli kanamycin selection, DiMSum; sequences stand for … in CUCUCU…GGAGGGAAAAGUUAUCAGGCAUGCACCUGGUAGCUAGUCUUUAAACCAAUAGAUUGCAUCGGUUUAAAAGGCAAGACCGUCAAAUUGCGGGAAAGGGGUCAACAGCCGUUCAGUACCAAGUCUCAGGGGAAACUUUGAGAUGGCCUUGCAAAGGGUAUGGUAAUAAGCUGACGGACAUGGUCCUAACCACGCAGCCAAGUCCUAAGUCAACAGAUCUUCUGUUGAUAUGGAUGCAGUUCACAGACUAAAUGUCGGUCGGGGAAGAUGUAUUCUUCUCAUAAGAUAUAGUCGGACCUCUCCUUAAUGGGAGCUAGCGGAUGAAGUGAUGCAACACUGGAGCCGCUGGGAACUAAUUUGUAUGCGAAAGUAUAUUGAUUAGUUUUGGAGUACUCGUGGUCG
Outline: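 Pooled colonies went to amplicon sequencing on an Illumina HiSeq 2500 after six replicate transformations. The plates were LB agar with 100 μg/mL carbenicillin, 50 μM IPTG and 0.2% rhamnose, with or without 25 μg/mL kanamycin, incubated overnight at 37°C or 30°C. The E. coli BL21(DE3) library had all eight P1ex-region intron nucleotides randomised, the intron placed in the knt kanamycin-resistance gene on pET-22b(+). DiMSum fitness is the error-weighted combination of replicate fold changes, kanamycin against none, normalised to wild type.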

Sequence	self-splicing fitness (ln) (30 °C)	self-splicing fitness (ln) (37 °C)
UAGGAGCAAUAUUACGAGUC	-3.68 ± 0.33	-2.78 ± 0.3
UAGGAGCAAUAUUACGAUCU	-3.09 ± 0.4	–
UAGGAGCAAUAUUACGAUGC	-1.78 ± 0.23	-1.01 ± 0.17
UAGGAGCAAUAUUACGAUGU	–	-1.79 ± 0.4
UAGGAGCAAUAUUACGCCCG	-1.53 ± 0.19	-0.352 ± 0.17
UAGGAGCAAUAUUACGGAAG	-2.94 ± 0.18	-1.51 ± 0.26
UAGGAGCAAUAUUACGGAUA	-2.09 ± 0.29	-1.46 ± 0.23
UAGGAGCAAUAUUACGGAUC	-3.44 ± 0.41	-0.998 ± 0.39
UAGGAGCAAUAUUACGGCAC	-2.4 ± 0.15	-2.53 ± 0.26
UAGGAGCAAUAUUACGGCCA	-2.27 ± 0.21	-1.7 ± 0.27
UAGGAGCAAUAUUACGGCUA	-0.122 ± 0.11	0.147 ± 0.11
UAGGAGCAAUAUUACGGUAA	-3.41 ± 0.34	-2.26 ± 0.31
UAGGAGCAAUAUUACGUAAU	-3.15 ± 0.34	–
UAGGAGCAAUAUUACGUACU	-2.72 ± 0.31	-1.73 ± 0.32
UAGGAGCAAUAUUACGUAUA	-2.34 ± 0.21	-0.936 ± 0.17
UAGGAGCAAUAUUACGUCAC	-3.99 ± 0.16	-3.35 ± 0.21
UAGGAGCAAUAUUACGUCAG	-4.59 ± 0.42	-1.7 ± 0.26
UAGGAGCAAUAUUACGUCCU	-1.63 ± 0.18	-2.25 ± 0.26
UAGGAGCAAUAUUACGUCUA	-0.313 ± 0.11	0.198 ± 0.13
UAGGAGCAAUAUUACGUCUU	-3.16 ± 0.34	-0.955 ± 0.23
UAGGAGCAAUAUUACGUUUC	-2.55 ± 0.29	-2.68 ± 0.44
UAGGAGCAAUAUUACGUUUU	-1.88 ± 0.23	-1.89 ± 0.27
UAGUAGCAAUAUUACGAACC	–	-2.97 ± 0.33
UAGUAGCAAUAUUACGAAGC	–	-1.73 ± 0.45
UAGUAGCAAUAUUACGACUC	-0.329 ± 0.16	0.405 ± 0.19

Sequence	self-splicing fitness (ln) (30 °C)	self-splicing fitness (ln) (37 °C)
UAGUAGCAAUAUUACGACUU	0.654 ± 0.13	-0.285 ± 0.14
UAGUAGCAAUAUUACGAGGG	-3.04 ± 0.42	-2.03 ± 0.36
UAGUAGCAAUAUUACGCAGG	-2.8 ± 0.22	-1.74 ± 0.23
UAGUAGCAAUAUUACGCCUA	-0.556 ± 0.14	-0.575 ± 0.14
UAGUAGCAAUAUUACGCGUA	-1.53 ± 0.25	-1.94 ± 0.17
UAGUAGCAAUAUUACGCUAC	-2.41 ± 0.42	–
UAGUAGCAAUAUUACGCUCU	-1.71 ± 0.16	-0.589 ± 0.17
UAGUAGCAAUAUUACGGCCG	0.0089 ± 0.17	-0.367 ± 0.23
UAGUAGCAAUAUUACGGCUG	-0.344 ± 0.061	-0.0985 ± 0.096
UAGUAGCAAUAUUACGUCCU	-2.53 ± 0.21	-0.272 ± 0.15
UAGUAGCAAUAUUACGUGCU	-1.79 ± 0.11	-0.826 ± 0.12
UAGUAGCAAUAUUACGUGGA	-2.56 ± 0.31	-1.29 ± 0.2
UAGUAGCAAUAUUACGUUAU	-3.5 ± 0.43	-3.13 ± 0.4
UAGUAGCAAUAUUACGUUCG	-0.331 ± 0.091	-0.159 ± 0.11
UAGUAGCAAUAUUACGUUGG	-3.52 ± 0.22	-2.69 ± 0.16
UAUAAGCAAUAUUACGAAAG	-1.17 ± 0.13	-2.44 ± 0.21
UAUAAGCAAUAUUACGAAAU	-3.45 ± 0.22	-3.24 ± 0.33
UAUAAGCAAUAUUACGAACG	-0.609 ± 0.12	0.622 ± 0.15
UAUAAGCAAUAUUACGAACU	-1.94 ± 0.28	0.235 ± 0.24
UAUAAGCAAUAUUACGAAGG	-2.23 ± 0.21	-1.19 ± 0.23
UAUAAGCAAUAUUACGAAUC	–	-1.77 ± 0.36
UAUAAGCAAUAUUACGACCA	-0.816 ± 0.092	0.038 ± 0.12
UAUAAGCAAUAUUACGAUCU	-1.22 ± 0.11	0.0539 ± 0.12
UAUAAGCAAUAUUACGAUGC	-3.29 ± 0.36	-2.63 ± 0.27
UAUAAGCAAUAUUACGAUUU	-1.43 ± 0.091	-0.65 ± 0.1
